Series [1] deals with WT/M2345 IRSp53 heterodimer (UniProt Q9UQB8). Briefly: co-IP.
Series [2] has as its target M2345/WT IRSp53 heterodimer (UniProt Q9UQB8). Put plainly: co-IP.
A further series addresses 2xFLAG-Eps8 (human, UniProt Q12929 1-822). Put plainly: other fluorescence titration.
The series “crystal structure” deals with the molecule itself. Briefly: crystal structure.
For series [3], the target named is FLAG-Eps8/pIRSp53 complex (human | , UniProt Q12929 1-822; Q9UQB8-4 1-521, phosphorylated (pIRSp53, as m4)). Briefly: pull-down.
Chain of FLAG-Eps8/pIRSp53 complex (Q12929 whole entry, one chain of several): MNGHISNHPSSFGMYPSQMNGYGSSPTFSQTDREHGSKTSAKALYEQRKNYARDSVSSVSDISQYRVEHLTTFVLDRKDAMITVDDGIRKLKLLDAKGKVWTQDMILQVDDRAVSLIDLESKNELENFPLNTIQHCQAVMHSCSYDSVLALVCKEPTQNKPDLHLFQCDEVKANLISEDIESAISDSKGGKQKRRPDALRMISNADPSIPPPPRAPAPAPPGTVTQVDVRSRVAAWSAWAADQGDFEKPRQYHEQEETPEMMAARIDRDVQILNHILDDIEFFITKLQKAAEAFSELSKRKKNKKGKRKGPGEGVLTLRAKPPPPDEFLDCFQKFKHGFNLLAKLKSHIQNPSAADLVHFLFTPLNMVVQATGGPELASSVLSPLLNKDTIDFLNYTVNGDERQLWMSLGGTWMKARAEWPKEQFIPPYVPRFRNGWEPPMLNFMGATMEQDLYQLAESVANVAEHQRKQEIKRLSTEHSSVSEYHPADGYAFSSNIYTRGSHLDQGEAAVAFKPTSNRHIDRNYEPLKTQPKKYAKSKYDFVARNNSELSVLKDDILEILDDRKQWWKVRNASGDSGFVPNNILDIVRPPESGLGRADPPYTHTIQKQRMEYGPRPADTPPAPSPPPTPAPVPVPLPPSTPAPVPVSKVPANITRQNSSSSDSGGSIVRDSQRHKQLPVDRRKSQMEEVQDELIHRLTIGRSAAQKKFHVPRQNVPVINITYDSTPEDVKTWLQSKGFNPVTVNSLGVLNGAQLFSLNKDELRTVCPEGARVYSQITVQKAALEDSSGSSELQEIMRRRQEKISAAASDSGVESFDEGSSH

Chain of 2xFLAG-Eps8 (Q12929 whole entry): as the sequence (Q12929 whole entry, one chain of several) above

On to “endogenous 14-3-3 (all isoforms included) (from UniProt P27348 1-245) (natural protein)”, for which the percent of the amount that coimmunoprecipitates with WT/WT IRSp53 in series [1] and in series [2] was 50% each time.

B1: pIRSp53FS (natural protein, UniProt Q9UQB8-4 1-521, looked up)
chain: MSLSRSEEMHRLTENVYKTIMEQFNPSLRNFIAMGKNYEKALAGVTYAAKGYFDALVKMGELASESQGSKELGDVLFQMAEVHRQIQNQLEEMLKSFHNELLTQLEQKVELDSRYLSAALKKYQTEQRSKGDALDKCQAELKKLRKKSQGSKNPQKYSDKELQYIDAISNKQGELENYVSDGYKTALTEERRRFCFLVEKQCAVAKNSAAYHSKGKELLAQKLPLWQQACADPSKIPERAVQLMQQVASNGATLPSALSASKSNLVISDPIPGAKPLPVPPELAPFVGRMSAQESTPIMNGVTGPDGEDYSPWADRKAAQPKSLSPPQSQSKLSDSYSNTLPVRKSVTPKNSYATTENKTLPRSSSMAAGLERNGRMRVKAIFSHAAGDNSTLLSFKEGDLITLLVPEARDGWHYGESEKTKMRGWFPFSYTRVLDSDGSDRLHMSLQQGKSSSTGNLLDKDDLAIPPPDYGAASRAFPAQTASGFKQRPYSVAVPAFSQGLDDYGARSMSSGSGTLVCTV
modifications: natively phosphorylated in HEK293T cells; C230 and C519 labeled with the donor/acceptor pair fluorescein maleimide/rhodamine maleimide
For B1, binding with 2xFLAG-Eps8 was put at a Kd of 42 nM.

B2: 14-3-3θ (natural protein, human)
chain: MEKTELIQKAKLAEQAERYDDMATCMKAVTEQGAELSNEERNLLSVAYKNVVGGRRSAWRVISSIEQKTDTSDKKLQLIKDYREKVESELRSICTTVLELLDKYLIANATNPESKVFYLKMKGDYFRYLAEVACGDDRKQTIDNSQGAYQEAFDISKKEMQPTHPIRLGLALNFSVFYYEILNNPELACTLAKTAFDEAIAELDTLNEDSYKDSTLIMQLLRDNLTLWTSDSAGEECDAAEGAEN
B2: the binding result (in “crystal structure”; in series [3]) was “binds” in each case.

These data come from publication doi:10.1101/430827 (bioRxiv, 2018).
